B1: 5T4 9-mer peptide 180 (peptide)
peptide: LGIVLALIG
B2: 5T4 9-mer peptide 170 (peptide)
peptide: SADLDCDPI
B3: 5T4 9-mer peptide 140 (peptide)
peptide: AELQGLPHI
B4: 5T4 9-mer peptide 172 (peptide)
peptide: DCDPILPPS
B5: 5T4 9-mer peptide 191 (peptide)
peptide: IKKWMHNIR
B6: 5T4 9-mer peptide 177 (peptide)
peptide: QTSYVFLGI
B7: 5T4 9-mer peptide 157 (peptide)
peptide: EVVQGKDRL
B8: 5T4 9-mer peptide 165 (peptide)
peptide: MRNRVLLEL
B9: 5T4 9-mer peptide 171 (peptide)
peptide: DLDCDPILP
B10: 5T4 9-mer peptide 139 (peptide)
peptide: TLAELQGLP
B11: 5T4 9-mer peptide 188 (peptide)
peptide: YLNRKGIKK
B12: 5T4 9-mer peptide 160 (peptide)
peptide: DRLTCAYPE
B13: 5T4 9-mer peptide 193 (peptide)
peptide: MHNIRDACR
B14: 5T4 9-mer peptide 154 (peptide)
peptide: TWLKETEVV
B15: 5T4 9-mer peptide 166 (peptide)
peptide: NRVLLELNS
B16: 5T4 9-mer peptide 192 (peptide)
peptide: KWMHNIRDA
B17: 5T4 9-mer peptide 178 (peptide)
peptide: SYVFLGIVL
B18: 5T4 9-mer peptide 185 (peptide)
peptide: IFLLVLYLN
B19: 5T4 9-mer peptide 153 (peptide)
peptide: MVTWLKETE
B20: 5T4 9-mer peptide 195 (peptide)
peptide: RDACRDHME
B21: 5T4 9-mer peptide 150 (peptide)
peptide: DCHMADMVT
B22: 5T4 9-mer peptide 175 (peptide)
peptide: PPSLQTSYV
B23: 5T4 9-mer peptide 173 (peptide)
peptide: DPILPPSLQ
B24: 5T4 9-mer peptide 155 (peptide)
peptide: LKETEVVQG
B25: 5T4 9-mer peptide 159 (peptide)
peptide: GKDRLTCAY
B26: 5T4 9-mer peptide 162 (peptide)
peptide: CAYPEKMRN
B27: 5T4 9-mer peptide 156 (peptide)
peptide: ETEVVQGKD
B28: 5T4 9-mer peptide 194 (peptide)
peptide: NIRDACRDH
B29: 5T4 9-mer peptide 143 (peptide)
peptide: PHIRVFLDN
B30: 5T4 9-mer peptide 145 (peptide)
peptide: VFLDNNPWV
B31: 5T4 9-mer peptide 190 (peptide)
peptide: KGIKKWMHN
B32: 5T4 9-mer peptide 146 (peptide)
peptide: LDNNPWVCD
B33: 5T4 9-mer peptide 141 (peptide)
peptide: LQGLPHIRV
B34: 5T4 9-mer peptide 147 (peptide)
peptide: NNPWVCDCH
B35: 5T4 9-mer peptide 158 (peptide)
peptide: VQGKDRLTC
B36: 5T4 9-mer peptide 184 (peptide)
peptide: GAIFLLVLY
B37: 5T4 9-mer peptide 152 (peptide)
peptide: ADMVTWLKE
B38: 5T4 9-mer peptide 168 (peptide)
peptide: LELNSADLD
B39: 5T4 9-mer peptide 164 (peptide)
peptide: EKMRNRVLL
B40: 5T4 9-mer peptide 167 (peptide)
peptide: VLLELNSAD
B41: 5T4 9-mer peptide 189 (peptide)
peptide: NRKGIKKWM
B42: 5T4 9-mer peptide 144 (peptide)
peptide: IRVFLDNNP
B43: 5T4 9-mer peptide 148 (peptide)
peptide: PWVCDCHMA
B44: 5T4 9-mer peptide 169 (peptide)
peptide: LNSADLDCD
B45: 5T4 9-mer peptide 149 (peptide)
peptide: VCDCHMADM

How the values were obtained:
Test in all cases: iTopia, multiparametric iScore
[1] = biological target: T1, MHC class I allele A*0101 monomer (human, biotinylated, bound to streptavidin-coated plate)
T1 construct: placeholder peptide and b2M removed, then reconstituted with test peptide and fresh b2M; also called A1; HLA-A1
Experimental: (§1) The 9 mers were tested for Peptide Binding, Off Rate and Affinity using iTopia Epitope Discovery System in accordance with the manufacturer's instructions. Briefly, 96 well microtitre plates coated with MHC molecules representing different MHC alleles are used to identify candidate peptides. […] Determinations are performed in duplicate using an ELISA plate reader and included allele specific positive controls.
(§2) Finally, multiparametric analysis is performed on the results from these assays and an iScore is generated. The iScore represents a measure of the overall quality of peptide-MHC binding, enabling candidate peptides to be ranked in order of binding quality and allowing rational prioritisation of peptides for functional cellular follow-up studies.

[2] = biological target: T2, MHC class I allele A*0201 monomer (human, biotinylated, bound to streptavidin-coated plate)
T2 construct: also called A2; HLA-A2
Experimental: as §1, §2

[3] = biological target: T3, MHC class I allele A*0301 monomer (human, biotinylated, bound to streptavidin-coated plate)
T3 construct: also called A3; HLA-A3
Experimental: as §1, §2

[4] = biological target: T4, MHC class I allele B*0702 monomer (human, biotinylated, bound to streptavidin-coated plate)
T4 construct: also called B7; HLA-B7
Experimental: as §1, §2

| Binder | iScore [1] | iScore [2] | iScore [3] | iScore [4] |
| --- | --- | --- | --- | --- |
| B1 | 0 | 0 | 0 | 0 |
| B2 | 0 | 0 | 0 | 0 |
| B3 | 0 | 0 | 0 | 0 |
| B4 | 0 | 0 | 0 | 0 |
| B5 | 0 | 0.181 | 0 | 0 |
| B6 | 0.027 | 0.127 | 0 | 0 |
| B7 | 0 | 0.139 | 0 | 0 |
| B8 | 0 | 0 | 0 | 0 |
| B9 | 0 | 0 | 0 | 0 |
| B10 | 0 | 0.083 | 0 | 0 |
| B11 | 0 | 0.118 | 0.065 | 0.089 |
| B12 | 0 | 0 | 0 | 0 |
| B13 | 0 | 0.093 | 0 | 0 |
| B14 | 0 | 0.184 | 0 | 0 |
| B15 | 0 | 0.031 | 0 | 0 |
| B16 | 0 | 0.45 | 0 | 0 |
| B17 | 0 | 0.118 | 0 | 0.045 |
| B18 | 0 | 0 | 0 | 0 |
| B19 | 0 | 0.051 | 0 | 0 |
| B20 | 0 | 0.08 | 0 | 0 |
| B21 | 0 | 0 | 0 | 0 |
| B22 | 0 | 0.145 | 0 | 0 |
| B23 | 0 | 0 | 0 | 0 |

| Binder | iScore [1] | iScore [2] | iScore [3] | iScore [4] |
| --- | --- | --- | --- | --- |
| B24 | 0 | 0 | 0 | 0 |
| B25 | 0 | 0 | 0 | 0 |
| B26 | 0 | 0 | 0 | 0 |
| B27 | 0 | 0 | 0 | 0 |
| B28 | 0 | 0 | 0 | 0 |
| B29 | 0 | 0 | 0 | 0 |
| B30 | 0 | 0.239 | 0 | 0 |
| B31 | 0 | 0 | 0 | 0 |
| B32 | 0 | 0 | 0 | 0 |
| B33 | 0 | 0.2 | 0 | 0 |
| B34 | 0 | 0 | 0.051 | 0 |
| B35 | 0 | 0.074 | 0 | 0 |
| B36 | 0 | 0 | 0 | 0 |
| B37 | 0 | 0 | 0 | 0 |
| B38 | 0 | 0 | 0 | 0 |
| B39 | 0 | 0.096 | 0 | 0 |
| B40 | 0 | 0.105 | 0 | 0 |
| B41 | 0 | 0.138 | 0 | 0 |
| B42 | 0 | 0 | 0 | 0 |
| B43 | 0 | 0 | 0 | 0 |
| B44 | 0 | 0 | 0 | 0 |
| B45 | 0 | 0.061 | 0 | 0 |

From patent US20090280138A1 (OXFORD BIOMEDICA UK, published 2009)
